Consider one molecule from paper PMC10516938, “Conformational dynamics of cohesin/Scc2 loading complex are regulated by Smc3 acetylation and ATP binding” (Nature Communications, 2023).

The test has as its target T1, Smc3^QQ R1008I K1004C (S. cerevisiae, UniProt P47037 1-1230, K112Q | K113Q | K1004C | R1008I).
T1 construct: Smc3, S. cerevisiae; also called smc3-QQ K1004C with R1008I; source: S. cerevisiae W303, late G1 arrested cells, whole-cell extract
T1 sequence (looked up): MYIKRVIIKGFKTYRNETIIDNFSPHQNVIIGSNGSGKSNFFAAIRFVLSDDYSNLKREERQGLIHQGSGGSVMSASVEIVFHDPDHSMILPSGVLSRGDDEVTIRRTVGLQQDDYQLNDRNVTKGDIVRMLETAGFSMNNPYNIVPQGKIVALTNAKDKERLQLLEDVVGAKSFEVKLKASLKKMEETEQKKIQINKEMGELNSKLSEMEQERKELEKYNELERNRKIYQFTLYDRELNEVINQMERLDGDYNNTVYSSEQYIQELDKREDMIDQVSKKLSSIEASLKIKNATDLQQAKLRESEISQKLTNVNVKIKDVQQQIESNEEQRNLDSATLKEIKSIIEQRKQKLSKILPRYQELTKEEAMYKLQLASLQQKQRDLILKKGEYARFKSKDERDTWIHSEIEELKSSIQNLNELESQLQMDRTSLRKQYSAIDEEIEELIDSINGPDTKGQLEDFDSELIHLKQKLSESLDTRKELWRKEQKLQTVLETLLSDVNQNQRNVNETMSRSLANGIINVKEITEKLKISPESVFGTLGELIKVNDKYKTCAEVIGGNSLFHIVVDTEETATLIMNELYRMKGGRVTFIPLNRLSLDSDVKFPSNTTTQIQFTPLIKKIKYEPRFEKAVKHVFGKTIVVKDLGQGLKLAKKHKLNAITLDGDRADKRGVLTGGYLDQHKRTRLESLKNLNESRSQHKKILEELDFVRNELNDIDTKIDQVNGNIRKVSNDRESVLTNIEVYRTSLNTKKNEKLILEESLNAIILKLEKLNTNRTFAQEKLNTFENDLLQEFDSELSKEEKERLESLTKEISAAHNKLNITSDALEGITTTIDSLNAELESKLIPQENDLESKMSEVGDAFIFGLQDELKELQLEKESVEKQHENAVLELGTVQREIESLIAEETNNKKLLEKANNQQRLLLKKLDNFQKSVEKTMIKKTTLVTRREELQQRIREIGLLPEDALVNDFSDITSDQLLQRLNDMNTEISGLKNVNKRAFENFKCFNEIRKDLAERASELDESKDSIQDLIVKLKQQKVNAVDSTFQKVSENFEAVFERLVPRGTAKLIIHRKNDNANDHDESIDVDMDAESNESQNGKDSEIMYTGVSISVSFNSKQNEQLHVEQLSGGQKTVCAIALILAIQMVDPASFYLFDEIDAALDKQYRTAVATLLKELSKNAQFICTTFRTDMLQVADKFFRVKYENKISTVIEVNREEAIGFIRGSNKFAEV
Kind of test: cross-linking; in vivo BMOE cross-link of cysteine pairs in yeast cells arrested in late G1 by non-degradable Sic1(9m); Scc1-PK immunoprecipitated, western blot, band intensities quantified. Conditions: partners not purified.

B1: Scc2 D369C (natural protein, S. cerevisiae, UniProt Q04002 1-1493, looked up)
chain: MSYPGKDKNIPGRIIEALEDLPLSYLVPKDGLAALVNAPMRVSLPFDKTIFTSADDGRDVNINVLGTANSTTSSIKNEAEKERLVFKRPSNFTSSANSVDYVPTNFLEGLSPLAQSVLSTHKGLNDSINIEKKSEIVSRPEAKHKLESVTSNAGNLSFNDNSSNKKTKTSTGVTMTQANLAEQYLNDLKNILDIVGFDQNSAEIGNIEYWLQLPNKKFVLTTNCLTKLQMTIKNITDNPQLSNSIEITWLLRLLDVMVCNIKFSKSSLKMGLDDSMLRYIALLSTIVLFNIFLLGKNDSNLHRESYIMEPVNFLSDLIESLKILTIEYGSLKIEFDTFQEALELLPKYIRNGPFLDDNVTAKLVYIFSCLLMNNDIEATTNIQFQSFWDNVKRISSDILVSLFGSFDQQRGFIIEELLSHIEKLPTKRIQKKLRKVGNQNIYITDFTFTLMSMLENINCYSFCNQMKDIAPENIDLLKNEYKKQEEFLFNIVEHINDTILERFFKNPSALRYVIDNFVQDLLLLISSPQWPVTEKILSSLLKRLLSVYSPSMQVSANIETICLQLIGNIGSTIFDIKCSTRDHEDNNLIKMINYPETLPHFFKSFEECIAYNETIKCRRSATRFLWNLRLGTILILEEYTKDAKEQIITVDNELKKILEQIKDGGLGPELENREADFSTIKLDYFSILHAFELLNLYDPYLKLILSLLAKDKIKLRSTAIKCLSMLASKDKVILSNPMVKETIHRRLNDSSASVKDAILDLVSINSSYFEFYQQINNNYNDDSIMVRKHVLRINEKMYDETNDIVTKVYVIARILMKIEDEEDNIIDMARLILLNRWILKVHEVLDQPEKLKEISSSVLLVMSRVAIMNEKCSQLFDLFLNFYLLNKEAHSKEAYDKITHVLTILTDFLVQKIVELNSDDTNEKNSIVDKQNFLNLLAKFADSTVSFLTKDHITALYPYMVSDEKSDFHYYILQVFRCTFEKLANFKQKFLYDLETTLLSRLPKMNVREIDEAMPLIWSVATHRHDTARVAKACSSCLSHLHPYINKANNEEAAIVVDGKLQRLIYLSTGFARFCFPKPSNDKIAFLQEGETLYEHITKCLLVLSKDKITHVIRRVAVKNLTKLCGNHPKLFNSRHVLHLLDKEFQSDQLDIKLVILESLYDLFLLEERKSVRNTGVNSTLSSNSILKKKLLKTNRVEFANDGVCSALATRFLDNILQLCLLRDLKNSLVAIRLLKLILKFGYTNPSHSIPTVIALFASTSQYIRHVAYELLEDLFEKYETLVFSSLSRGVTKAIHYSIHTDEKYYYKHDHFLSLLEKLCGTGKKNGPKFFKVLKRIMQSYLDDITDLTSTNSSVQKSIFVLCTNISNITFVSQYDLVSLLKTIDLTTDRLKEVIMDEIGDNVSSLSVSEEKLSGIILIQLSLQDLGTYLLHLYGLRDDVLLLDIVEESELKNKQLPAKKPDISKFSAQLENIEQYSSNGKLLTYFRKHVKDT
notes: Scc2, S. cerevisiae; source: S. cerevisiae W303, in vivo, whole-cell extract
As to B1, the “crosslink relative to wild type” value was ~70%.
